# According to PMC5052118 (Nature structural & molecular biology, 2016):
# Where two headings read alike, the source gives them in different places.
# T1: LP1413 (Staphylococcus aureus USA300, UniProt Q0WXP5 1-96)
# T1 sequence: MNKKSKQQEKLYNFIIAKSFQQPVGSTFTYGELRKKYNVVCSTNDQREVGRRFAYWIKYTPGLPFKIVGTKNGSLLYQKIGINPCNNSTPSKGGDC
# B1: scc-emsa-3F/4R 60 bp duplex (3' end of cch) (dsDNA)
# DNA 1: TTTTAAATCCGCTAATGAAGGGATAGGCCCTTCAGGAGTTCACGAAGATTTCTAATTGTC
# DNA 2: GACAATTAGAAATCTTCGTGAACTCCTGAAGGGCCTATCCCTTCATTAGCGGATTTAAAA
# B2: HELA-8R ssDNA (ssDNA)
# DNA: CGCTTTAAAAGAAGTCAACGTCTTACCACTTCCAGTTGTATGCCATACATATCC
# B3: iter-int-1F/inter-int-2R 40 bp duplex (dsDNA)
# DNA 1: GAGTAATGATATGTGGCTATGTCTTAATATATGTGAAGAA
# DNA 2: TTCTTCACATATATTAAGACATAGCCACATATCATTACTC
# B4: Selenomethionine-derivatized Cch-6xHis (enzyme)
# chain: MSYTLFEIGPFALDSFGWKETIPPKKDGDSEKVVRMASPIIVNARFSDPITGVEKLIITNNNGKKDIFESDILTTRNLPSLIKYGYSINEKYIRSLSYALQLMRDRLPLSELYEGVGILETPFGYLISLDKVLKSIQFNQSSPSYPIVDSAYDLTPKGTFDNWFNMYIDEVKGHLLLELAVIFGISALVTSFLKHKHEIEFAGILFSFTGQSSTGKSTAAALAVSVAGNPTKGNETLFRSWNATRNALEGYLSNNYGIPIVFDELSSTTLRDTTGLLYSIAEGQGRQRSNVHGEVKTPKNWGTSVISTSEYSIFNDSAQNDGLRVRTIEINEQFTTNATNADNIKKAVALNYGHVLPLVAKYLINREDEVIQWFYKEVDWFEAKLKDETNNTGIRMFKRYAVITTSAKILGRVLSTDIDIANIRDYFIDYHTHTVSERSLADKAIDVIIQFVAQNRGKFSDEGALKNMFENYGLISLKDDHIEVKIIANVFKQMLNNHQFQDVNNVVNALRDKGFILADRGRQTTKRSVKDNSGKKQSLVFYHLKLDVEFASILGLTKDKSLLQNWTPSNDNKAAKELFKSANEGIGPSGVHEDF
# modifications: selenomethionine in place of methionine
# What was measured:
# CchWH = CchWH (Staphylococcus aureus USA300, UniProt A0A0H2XHF3 436-595); experiment: EMSA
# Cch [1] = target: T2, Cch (Staphylococcus aureus USA300, UniProt A0A0H2XHF3 1-595); experiment: EMSA
# Cch [2] = target: T2, Cch; experiment: EMSA; remark: listed apart in the source
# LP1413 = target: T1, LP1413; experiment: EMSA
# crystal structure = target: the molecule itself; experiment: crystal structure
binder,measurement,setting,value
B1,binding result,CchWH,binds
same,binding result,Cch [1],binds
B2,binding result,Cch [2],binds
GAGTAATGATATGTGGCTATGTCTTAATATATGTGAAGAA (ssDNA) [iter-int-1F ssDNA 40 nt],binding result,LP1413,binds
B3,binding result,LP1413,no binding
B4,stoichiometry N,crystal structure,6
